Experimental data as given in publication PMC11251093 (iScience, 2024).

Target: SARS-CoV S-6P (SARS-CoV, strain , UniProt P59594, stabilised)
Experiment: SPR

B1: 6D6 (antibody, V domains shown)
VH: EVQLQQSGAELVKPGASVKLSCTTSGFNIIDTYMHWVKQRPEEGLEWIGGIDPVNGNSEYDPKFQDKATITADTSSNTAYLHLSRLTSEDTAVYYCASAHYYGSSSSFPYWGQGTDLVTVS
VL: DIVMTQSQKFMSTSVGDRVSVTCKASQNVGTHVAWYQQKPGQSPKALIYSASYRYSGVPDRFTGSGVGTDFTLTITNVQSEDLAEYFCQQYNSYFTFGSGTKLEIK
- binding result: binds
